Source: patent US20260286413A1, “HYALURONAN SYNTHESIS, SECRETION AND LENGTH CONTROL” (UNIVERSITY OF VIRGINIA, priority 2023, published 2026)

B1: R496K: X1HAS1 mutant, Arg496 replaced with Lys (protein, UniProt P13563 1-588, looked up, variant R496K)
Hyaluronan synthase 1: MKEKAAETMEIPEGIPKDLEPKHPTLWRIIYYSFGVVLLATITAAYVAEFQVLKHEAILFSLGLYGLAMLLHLMMQSLFAFLEIRRVNKSELPCSFKKTVALTIAGYQENPEYLIKCLESCKYVKYPKDKLKIILVIDGNTEDDAYMMEMFKDVFHGEDVGTYVWKGNYHTVKKPEETNKGSCPEVSKPLNEDEGINMVEELVRNKRCVCIMQQWGGKREVMYTAFQAIGTSVDYVQVCDSDTKLDELATVEMVKVLESNDMYGAVGGDVRILNPYDSFISFMSSLRYWMAFNVERACQSYFDCVSCISGPLGMYRNNILQVFLEAWYRQKFLGTYCTLGDDRHLTNRVLSMGYRTKYTHKSRAFSETPSLYLRWLNQQTRWTKSYFREWLYNAQWWHKHHIWMTYESVVSFIFPFFITATVIRLIYAGTIWNVVWLLLCIQIMSLFKSIYACWLRGNFIMLLMSLYSMLYMTGLLPSKYFALLTLNKTGWGTSGKKKIVGNYMPILPLSIWAAVLCGGVGYSIYMDCQNDWSTPEKQKEMYHLLYGCVGYVMYWVIMAVMYWVWVKRCCRKRSQTVTLVHDIPDMCV
B2: R296K: X1HAS1 mutant, Arg296 replaced with Lys (protein, UniProt P13563 1-588, looked up, variant R296K)
Hyaluronan synthase 1: MKEKAAETMEIPEGIPKDLEPKHPTLWRIIYYSFGVVLLATITAAYVAEFQVLKHEAILFSLGLYGLAMLLHLMMQSLFAFLEIRRVNKSELPCSFKKTVALTIAGYQENPEYLIKCLESCKYVKYPKDKLKIILVIDGNTEDDAYMMEMFKDVFHGEDVGTYVWKGNYHTVKKPEETNKGSCPEVSKPLNEDEGINMVEELVRNKRCVCIMQQWGGKREVMYTAFQAIGTSVDYVQVCDSDTKLDELATVEMVKVLESNDMYGAVGGDVRILNPYDSFISFMSSLRYWMAFNVEKACQSYFDCVSCISGPLGMYRNNILQVFLEAWYRQKFLGTYCTLGDDRHLTNRVLSMGYRTKYTHKSRAFSETPSLYLRWLNQQTRWTKSYFREWLYNAQWWHKHHIWMTYESVVSFIFPFFITATVIRLIYAGTIWNVVWLLLCIQIMSLFKSIYACWLRGNFIMLLMSLYSMLYMTGLLPSKYFALLTLNKTGWGTSGRKKIVGNYMPILPLSIWAAVLCGGVGYSIYMDCQNDWSTPEKQKEMYHLLYGCVGYVMYWVIMAVMYWVWVKRCCRKRSQTVTLVHDIPDMCV
B3: C337S: X1HAS1 mutant, Cys337 replaced with Ser (protein, UniProt P13563 1-588, looked up, variant C337S)
Hyaluronan synthase 1: MKEKAAETMEIPEGIPKDLEPKHPTLWRIIYYSFGVVLLATITAAYVAEFQVLKHEAILFSLGLYGLAMLLHLMMQSLFAFLEIRRVNKSELPCSFKKTVALTIAGYQENPEYLIKCLESCKYVKYPKDKLKIILVIDGNTEDDAYMMEMFKDVFHGEDVGTYVWKGNYHTVKKPEETNKGSCPEVSKPLNEDEGINMVEELVRNKRCVCIMQQWGGKREVMYTAFQAIGTSVDYVQVCDSDTKLDELATVEMVKVLESNDMYGAVGGDVRILNPYDSFISFMSSLRYWMAFNVERACQSYFDCVSCISGPLGMYRNNILQVFLEAWYRQKFLGTYSTLGDDRHLTNRVLSMGYRTKYTHKSRAFSETPSLYLRWLNQQTRWTKSYFREWLYNAQWWHKHHIWMTYESVVSFIFPFFITATVIRLIYAGTIWNVVWLLLCIQIMSLFKSIYACWLRGNFIMLLMSLYSMLYMTGLLPSKYFALLTLNKTGWGTSGRKKIVGNYMPILPLSIWAAVLCGGVGYSIYMDCQNDWSTPEKQKEMYHLLYGCVGYVMYWVIMAVMYWVWVKRCCRKRSQTVTLVHDIPDMCV
B4: C307S: X1HAS1 mutant, Cys307 replaced with Ser (protein, UniProt P13563 1-588, looked up, variant C307S)
Hyaluronan synthase 1: MKEKAAETMEIPEGIPKDLEPKHPTLWRIIYYSFGVVLLATITAAYVAEFQVLKHEAILFSLGLYGLAMLLHLMMQSLFAFLEIRRVNKSELPCSFKKTVALTIAGYQENPEYLIKCLESCKYVKYPKDKLKIILVIDGNTEDDAYMMEMFKDVFHGEDVGTYVWKGNYHTVKKPEETNKGSCPEVSKPLNEDEGINMVEELVRNKRCVCIMQQWGGKREVMYTAFQAIGTSVDYVQVCDSDTKLDELATVEMVKVLESNDMYGAVGGDVRILNPYDSFISFMSSLRYWMAFNVERACQSYFDCVSSISGPLGMYRNNILQVFLEAWYRQKFLGTYCTLGDDRHLTNRVLSMGYRTKYTHKSRAFSETPSLYLRWLNQQTRWTKSYFREWLYNAQWWHKHHIWMTYESVVSFIFPFFITATVIRLIYAGTIWNVVWLLLCIQIMSLFKSIYACWLRGNFIMLLMSLYSMLYMTGLLPSKYFALLTLNKTGWGTSGRKKIVGNYMPILPLSIWAAVLCGGVGYSIYMDCQNDWSTPEKQKEMYHLLYGCVGYVMYWVIMAVMYWVWVKRCCRKRSQTVTLVHDIPDMCV
B5: C307A: X1HAS1 mutant, Cys307 replaced with Ala (protein, UniProt P13563 1-588, looked up, variant C307A)
Hyaluronan synthase 1: MKEKAAETMEIPEGIPKDLEPKHPTLWRIIYYSFGVVLLATITAAYVAEFQVLKHEAILFSLGLYGLAMLLHLMMQSLFAFLEIRRVNKSELPCSFKKTVALTIAGYQENPEYLIKCLESCKYVKYPKDKLKIILVIDGNTEDDAYMMEMFKDVFHGEDVGTYVWKGNYHTVKKPEETNKGSCPEVSKPLNEDEGINMVEELVRNKRCVCIMQQWGGKREVMYTAFQAIGTSVDYVQVCDSDTKLDELATVEMVKVLESNDMYGAVGGDVRILNPYDSFISFMSSLRYWMAFNVERACQSYFDCVSAISGPLGMYRNNILQVFLEAWYRQKFLGTYCTLGDDRHLTNRVLSMGYRTKYTHKSRAFSETPSLYLRWLNQQTRWTKSYFREWLYNAQWWHKHHIWMTYESVVSFIFPFFITATVIRLIYAGTIWNVVWLLLCIQIMSLFKSIYACWLRGNFIMLLMSLYSMLYMTGLLPSKYFALLTLNKTGWGTSGRKKIVGNYMPILPLSIWAAVLCGGVGYSIYMDCQNDWSTPEKQKEMYHLLYGCVGYVMYWVIMAVMYWVWVKRCCRKRSQTVTLVHDIPDMCV
B6: R287K: X1HAS1 mutant, Arg287 replaced with Lys (protein, UniProt P13563 1-588, looked up, variant R287K)
Hyaluronan synthase 1: MKEKAAETMEIPEGIPKDLEPKHPTLWRIIYYSFGVVLLATITAAYVAEFQVLKHEAILFSLGLYGLAMLLHLMMQSLFAFLEIRRVNKSELPCSFKKTVALTIAGYQENPEYLIKCLESCKYVKYPKDKLKIILVIDGNTEDDAYMMEMFKDVFHGEDVGTYVWKGNYHTVKKPEETNKGSCPEVSKPLNEDEGINMVEELVRNKRCVCIMQQWGGKREVMYTAFQAIGTSVDYVQVCDSDTKLDELATVEMVKVLESNDMYGAVGGDVRILNPYDSFISFMSSLKYWMAFNVERACQSYFDCVSCISGPLGMYRNNILQVFLEAWYRQKFLGTYCTLGDDRHLTNRVLSMGYRTKYTHKSRAFSETPSLYLRWLNQQTRWTKSYFREWLYNAQWWHKHHIWMTYESVVSFIFPFFITATVIRLIYAGTIWNVVWLLLCIQIMSLFKSIYACWLRGNFIMLLMSLYSMLYMTGLLPSKYFALLTLNKTGWGTSGRKKIVGNYMPILPLSIWAAVLCGGVGYSIYMDCQNDWSTPEKQKEMYHLLYGCVGYVMYWVIMAVMYWVWVKRCCRKRSQTVTLVHDIPDMCV

Tested on: X1HAS1
Experiment: Electrophoretic HA size determination (agarose gel, Stains-all) of in vitro synthesized HA
Format: biochemical, Xenopus laevis
Conditions: for HA product versus WT: short and long reactions (1 h or 8 h), not distinguished
Protocol: To assess the size of HA synthesized by X1HAS1, similar reaction conditions were applied to the ones described above. […] […] Controls were carried out by digesting the synthesized polymers with hyaluronidase. Synthesis reactions were mixed with SDS-PAGE loading dye and applied to a 1% agarose gel (Ultra-pure agarose, Invitrogen) casted in an Owl B2 system (ThermoFisher). […] After the run, the gel was equilibrated in 50% ethanol for 1.5 h and subjected to staining in 0.05% Stains-all (Sigma) in 50% ethanol overnight under light-protection. Post-staining background was reduced by soaking the gel in 20% ethanol for 3-7 days in the dark. The migration of the synthesized HA species was compared to HA standards from Streptococcus equi (Sigma), as well as enzymatically generated ladders: HA LoLadder and HA HiLadder (Hyalose).

Row | Molecule | HA product versus WT, short reaction | HA product versus WT, long reaction (8 h synthesis reaction) | HA product versus WT
1 | B1 | slightly increased length | greater polydispersity | 
2 | B2 |  |  | low molecular weight
3 | B3 |  |  | slight length reduction
4 | B4 |  |  | low amounts of polydisperse HA
5 | B5 |  |  | low amounts of polydisperse HA
6 | B6 |  |  | polydisperse
